The values that follow come from PMC6406002, “Comparison of the functional properties of trimeric and monomeric CaiT of Escherichia coli” (Scientific Reports, 2019).

This data set concerns the molecule itself. Put plainly: SEC; gel filtration (Superdex 10/300 GL) after incubation at given temperature for 60 min in 100 mM potassium phosphate pH 7.5, 2 mM β-mercaptoethanol, 0.04% DDM.

B1: L-carnitine/γ-butyrobetaine antiporter CaiT of Escherichia coli, wild-type (natural protein)
chain: not shown
notes: CaiT, L-carnitine/γ-butyrobetaine antiporter of E. coli; the caiT gene cloned into pET21a; also called CaiT(WT); WT; source: E. coli JW0039 with pET21a/caiT, purified (Ni-NTA), in detergent (DDM)
Consider B1, for which the binding result was “binds”.
